From US7387779B2, “Anti-angiogenic proteins and fragments and methods of use thereof” (Beth Israel Deaconess Medical Center, priority 1998, dated 2008) come the findings set out here.

The assay relates to C-PAE cells. In words: Endothelial cell proliferation, methylene blue staining. In kind it is cell-based, bovine. As to conditions: for inhibition of endothelial cell proliferation by synthetic peptides: 10 μg/ml; for EC50: equimolar comparison, read-out: ED50, anti-proliferative effect; for inhibition of proliferation of C-PAE cells: 15 μg/ml; for Relative Cell No. (%) C-PAE: 15 μg/ml recombinant protein; for inhibition of endothelial cell proliferation, comparison with anti-αvβ3 antibody: increasing equimolar amounts; for reduction of the number of cells: 10% FBS, 5 ng/ml bFGF, 3 ng/ml VEGF, 48 hours, 5 μg/ml and higher. As to the method: A methylene blue staining test was also done. 3,100 cells were added to each well and treated as above, and cells were then counted using the method of Oliver et al. (Oliver, M. H. et al., 1989, J. Cell. Science 92:513-18). All wells were washed one time with […] of 1×PBS and the cells were fixed by adding […] of 10% formalin in neutral-buffered saline (Sigma Chemical Co., St. Louis, Mo., USA) for 30 minutes at room temperature. After formalin removal cells were stained with a solution of 1% methylene blue (Sigma Chemical Co.) in 0.01 M borate buffer (pH 8.5) for 30 minutes at room temperature. After removal of staining solution, the wells were washed 5 times with […] of 0.01 M borate buffer (pH 8.5). Methylene blue was extracted from the cells with […] of 0.1N HCi/ethanol (1:1 mixture) for 1 hour at room temperature. The amount of methylene blue staining was measured on a microplate reader (BioRad, Hercules, Calif., USA) using light absorbance at 655 nm wavelength.
In the methylene-blue staining method, 7000 cells were plated into each well of a 96-well plate, and treated as described above. Cells were then counted using the method of Oliver et al. (1989, J. Cell. Sci. 92:513-8). After 48 hours of treatment, all wells were washed with 100 μl of PBS, and the cells fixed with 10% formalin in neutral-buffered saline (Sigma Chemical Co., St. Louis, Mo., USA). The cells were then stained with 1% methylene blue (Sigma) in 0.01M borate buffer, pH 8.5. Wells were washed with 0.01M borate buffer, and the methylene blue extracted from the cells with 0.1N HCl/ethanol, and the absorbance measured in a microplate reader (Bio-Rad, Hercules, Calif., USA) at 655 nm. Polymyxin B (Sigma) at a final concentration of 5 μg/ml was used to inactivate endotoxin (Liu, S. et al., 1997, Clin. Biochem. 30:455-63).
Proliferation of endothelial cells (C-PAE cells) and WM-164 melanoma cells was assayed by methylene blue staining, as described above in Examples 25 and 34. The results are shown in FIGS. 33A and 33B, which are a pair of graphs showing the effect of increasing concentration (x-axis) of Tumstatin, Tum-1, Tum-2, Tum-3 and Tum-4 on the relative number (y-axis) of C-PAE cells (FIG. 33A) and WM-164 cells (FIG. 33B). […] Tum-4, however, did have anti-proliferative activity in this cell line. […] Only Tum-4 inhibited WM-164 melanoma cells.
For the proliferation assay, Canstatin, Can-1 and Can-2 soluble proteins (0.1-20.0 μg/ml) were added to the growth medium of proliferating C-PAE cells, which were stimulated with 10% FBS in DMEM, in addition to 5 ng/ml bFGF and 3 ng/ml VEGF. The results are shown in FIG. 40, which is a graph showing the effect of increasing concentrations of Canstatin (♦), Can-1 (▪) and Can-2 (▴) (x-axis) on the relative cell number (y-axis) of C-PAE cells. Each concentration of each protein was tested in quadruplicate. Bovine serum albumin (BSA) was used as a control treatment. Polymyxin B was used to control for endotoxin interference, and no differences were found between assays run with and without polymyxin B added to the medium. Cells were allowed to proliferate for 48 hours, and were then fixed, stained and the density read with a Bio-Rad plate reader (Bio-Rad, Hercules, Calif., USA). Canstatin and Can-1 both caused dose-dependent decreases in the percent cell number, and both reduced the number of cells by 80% at concentrations of 5 μg/ml and higher.
An endothelial cell proliferation assay was used to compare the activity of Tumstatin and some of the deletion mutants. Recombinant Tumstatin (28 kDa), Tumstatin-44-131 (12 kDa) and T3 peptide were used in a methylene blue proliferation assay in equimolar concentrations.

As to GLKGKRGDSGSPATWTTRGF [T1], the “inhibition of endothelial cell proliferation by synthetic peptides” value (20% FCS) is on record as “did not inhibit endothelial cell proliferation”.

As to LQRFTTMPFLFCNVNDVCNF [T3], the EC50 was determined as 2500 nM. The “inhibition of endothelial cell proliferation by synthetic peptides” value (20% FCS) is given as “significantly (p<0.05) inhibit”. The “fold less active than Tumstatin and Tumstatin-44-131” value (equimolar concentrations / molar basis) turned out to be 2.5 fold.

B1: Tumstatin: NC1 domain of the α3 chain of type IV collagen, residues 1-244 (SEQ ID NO:10) (protein, listed as Homo sapiens)
chain: GLKGKRGDSGSPATWTTRGFVFTRHSQTTAIPSCPEGTVPLYSGFSFLFVQGNQRAHGQDLGTLGSCLQRFTTMPFLFCNVNDVCNFASRNDYSYWLSTPALMPMNMAPITGRALEPYISRCTVCEGPAIAIAVHSQTTDIPPCPHGWISLWKGFSFIMFTSAGSEGTGQALASPGSCLEEFRASPFLECHGRGTCNYYSNSYSFWLASLNPERMFRKPIPSTVKAGELEKIISRCQVCMKKRH
For the molecule B1, the “inhibition of proliferation of C-PAE cells” value (shortened to “inhibition … of C-PAE cells”) was found to be 78.5%; the EC50 came out at 1000 nM; the “inhibition of endothelial cell proliferation, comparison with anti-αvβ3 antibody” value is reported as “dose-dependent inhibition”. Besides, the “Relative Cell No. (%) C-PAE” value (20% FCS) amounted to 100.0 ± 3.2%.

B2: Tum-4: residues 181 to 244 of Tumstatin (SEQ ID NO:25) (protein)
chain: EFRASPFLECHGRGTCNYYSNSYSFWLASLNPERMFRKPIPSTVKAGELEKIISRCQVCMKKRH
modifications: Tum-4 (amino acids 181-244 of SEQ ID NO10)
As to B2, the “inhibition … of C-PAE cells” value is on record as “did not inhibit”. The “Relative Cell No. (%) C-PAE” value (20% FCS) came out at 95.7 ± 3.6%.

B3: Tum-2: residues 1 to 132 of Tumstatin (SEQ ID NO:23) (protein)
chain: GLKGKRGDSGSPATWTTRGFVFTRHSQTTAIPSCPEGTVPLYSGFSFLFVQGNQRAHGQDLGTLGSCLQRFTTMPFLFCNVNDVCNFASRNDYSYWLSTPALMPMNMAPITGRALEPYISRCTVCEGPAIAI
modifications: Tum-2 (amino acids 1-132 of SEQ ID NO10)
Regarding B3, the “inhibition … of C-PAE cells” value was found to be 73.3%. Besides, under “20% FCS”, the “Relative Cell No. (%) C-PAE” value amounted to 34.3 ± 3.9 %.

B4: Can-1: N-terminal 114 amino acids of full-length Canstatin (protein, listed as Homo sapiens)
chain: VSIGYLLVKHSQTDQEPMCPVGMNKLWSGYSLLYFEGQEKAHNQDLGLAGSCLARFSTMPFLYCNPGDVCYYASRNDKSYWLSTTAPLPMMPVAEDEIKPYISRCSVCEAPAIA
On to B4, for which the “reduction of the number of cells” value is listed as 80%.

B5: Tumstatin-44-131: residues 44 to 131 of full-length Tumstatin (SEQ ID NO:33) (protein)
chain: FSFLFVQGNQRAHGQDLGTLGSCLQRFTTMPFLFCNVNDVCNFASRNDYSYWLSTPALMPMNMAPITGRALEPYISRCTVCEGPAIAI
modifications: Tumstatin-45-132 (amino acids 45-132 of SEQ ID NO10)
As for B5, the EC50 stood at 1000 nM. The “ED50, inhibition of proliferation” value (Pichia-expressed, 20% FCS) was determined as 5 µg/mL.

B6: Canstatin: NC1 domain of the α2 chain of Type IV collagen (SEQ ID NO:6) (protein, listed as Homo sapiens)
chain: VSIGYLLVKHSQTDQEPMCPVGMNKLWSGYSLLYFEGQEKAHNQDLGLAGSCLARFSTMPFLYCNPGDVCYYASRNDKSYWLSTTAPLPMMPVAEDEIKPYISRCSVCEAPAIAIAVHSQDVSIPHCPAGWRSLWIGYSFLMHTAAGDEGGGQSLVSPGSCLEDFRATPFIECNGGRGTCHYYANKYSFWLTTIPEQSFQGSPSADTLKAGLIRTHISRCQVCMKNL
B6: the “reduction of the number of cells” value came out at 80%. Further, the “treatment level at which dye uptake dropped off to the level seen in unstimulated cells” value (10% FCS) lay in the range of 0.625 to 1.25 µg/mL.

B7: Tum-1: residues 54 to 244 of Tumstatin, lacking the N-terminal 53 amino acids (SEQ ID NO:22) (protein)
chain: QRAHGQDLGTLGSCLQRFTTMPFLFCNVNDVCNFASRNDYSYWLSTPALMPMNMAPITGRALEPYISRCTVCEGPAIAIAVHSQTTDIPPCPHGWISLWKGFSFIMFTSAGSEGTGQALASPGSCLEEFRASPFLECHGRGTCNYYSNSYSFWLASLNPERMFRKPIPSTVKAGELEKIISRCQVCMKKRH
modifications: Tum-1 (Tumstatin N-53) (amino acids 54-244 of SEQ ID NO10)
B7: the “inhibition … of C-PAE cells” value turned out to be 65.6%. Also, for the setting “20% FCS”, the “Relative Cell No. (%) C-PAE” value is 20.5 ± 3.4 %.

B8: endostatin: tumor associated angiogenesis inhibitor used as comparator (protein, UniProt P39060 1572-1754, looked up)
Endostatin: HSHRDFQPVLHLVALNSPLSGGMRGIRGADFQCFQQARAVGLAGTFRAFLSSRLQDLYSIVRRADRAAVPIVNLKDELLFPSWEALFSGSEGPLKPGARIFSFDGKDVLRHPTWPQKSVWHGSDPNGRRLTESYCETWRTEAPSATGQASSLLGGRLLGQSAASCHHAYIVLCIENSFMTASK
modifications: Endostatin
For the molecule B8, the “inhibition of endothelial cell proliferation, comparison with anti-αvβ3 antibody” value was “dose-dependent inhibition”.
